Tests used:
[1] = target: T1, CD96 on primary human CD4^+ T cells and PBMCs (human (endogenous in primary CD4^+ T cells and PBMCs)) (UniProt P40200)
T1 sequence: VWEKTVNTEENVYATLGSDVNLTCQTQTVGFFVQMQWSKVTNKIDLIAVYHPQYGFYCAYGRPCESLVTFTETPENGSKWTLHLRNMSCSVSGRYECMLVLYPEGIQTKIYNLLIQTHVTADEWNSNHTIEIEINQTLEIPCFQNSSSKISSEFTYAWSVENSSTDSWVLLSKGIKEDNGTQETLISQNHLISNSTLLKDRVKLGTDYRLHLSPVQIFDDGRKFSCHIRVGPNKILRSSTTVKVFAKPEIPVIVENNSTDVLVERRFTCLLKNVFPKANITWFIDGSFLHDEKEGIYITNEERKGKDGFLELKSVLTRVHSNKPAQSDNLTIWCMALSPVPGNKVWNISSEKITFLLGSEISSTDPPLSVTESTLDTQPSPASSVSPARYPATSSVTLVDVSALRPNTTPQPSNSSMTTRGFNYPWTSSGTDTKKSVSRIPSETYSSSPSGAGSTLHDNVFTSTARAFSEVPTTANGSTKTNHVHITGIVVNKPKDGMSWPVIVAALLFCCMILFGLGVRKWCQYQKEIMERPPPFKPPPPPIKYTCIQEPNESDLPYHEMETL

[2] = target: T1, CD96 on primary human CD4^+ T cells and PBMCs (human (endogenous in primary CD4^+ T cells and PBMCs)); remark: listed apart in the source

B1: Recombinant human CD155-Fc chimera (carrier-free) (Fc fusion)
chain: WPPPGTGDVVVQAPTQVPGFLGDSVTLPCYLQVPNMEVTHVSQLTWARHGESGSMAVFHQTQGPSYSESKRLEFVAARLGAELRNASLRMFGLRVEDEGNYTCLFVTFPQGSRSVDIWLRVLAKPQNTAEVQKVQLTGEPVPMARCVSTGGRPPAQITWHSDLGGMPNTSQVPGFLSGTVTVTSLWILVPSSQVDGKNVTCKVEHESFEKPQLLTVNLTVYYPPEVSISGYDNNWYLGQNEATLTCDARSNPEPTGYNWSTTMGPLPPFAVAQGAQLLIRPVDKPINTTLICNVTNALGARQAELTVQVKEGPPSEHSGISRN
adherence of primary CD4^+ T cells (mock-infected or infected with WT HIV-1) to wells coated with CD155-Fc, percent adherent cells by flow cytometry [1]: 20%

B2: Human CD155 (PVR) Fc chimera recombinant protein (Fc fusion)
chain: WPPPGTGDVVVQAPTQVPGFLGDSVTLPCYLQVPNMEVTHVSQLTWARHGESGSMAVFHQTQGPSYSESKRLEFVAARLGAELRNASLRMFGLRVEDEGNYTCLFVTFPQGSRSVDIWLRVLAKPQNTAEVQKVQLTGEPVPMARCVSTGGRPPAQITWHSDLGGMPNTSQVPGFLSGTVTVTSLWILVPSSQVDGKNVTCKVEHESFEKPQLLTVNLTVYYPPEVSISGYDNNWYLGQNEATLTCDARSNPEPTGYNWSTTMGPLPPFAVAQGAQLLIRPVDKPINTTLICNVTNALGARQAELTVQVKEGPPSEHSGISRN
IFN-γ release (ELISpot) of PBMCs stimulated with HCMV pp65 peptide and costimulated with soluble CD155 (5 μg/ml), fold change relative to pp65 alone [2]: < 8 fold
